# Data published in US20030092616A1, “STAT6 activation gene” (priority 2001, published 2003).
# B1: 455 (nucleic acid, listed as Homo sapiens)
# chain: ATGGTGTCCTGGATGATCTCCAGAGCCGTGGTGCTGGTGTTTGGAATGCTTTATCCTGCATATTATTCATACAAAGCTGTGAAAACAAAAAACGTGAAGGAATATGTTCGATGGATGATGTACTGGATTGTTTTTGCTCTCTATACTGTGATTGAAACAGTAGCCGATCAAACAGTTGCTTGGTTTCCCCTGTACTATGAGCTGAAGATTGCTTTTGTCATATGGCTGCTTTCTCCCTATACCAAAGGAGCAAGTTTAATATATAGAAAATTCCTTCATCCACTTCTTTCTTCAAAGGAAAGGGAGATTGATGATTATATTGTACAAGCAAAGGAACGAGGCTATGAAACCATGGTAAACTTTGGACGGCAAGGTTTAAACCTTGCAGCTACTGCTGCTGTTACTGCAGCAGTAAAGAGCCAAGGAGCAATAACTGAACGTTTAAGAAGCTTCAGTATGCATGATTTAACAACTATCCAAGGTGATGAGCCTGTGGGACAAAGACCATACCAACCTCTACCAGAAGCAAAAAAGAAAAGTAAACCAGCCCCCAGTGAATCAGCAGGTTATGGAATTCCACTGAAAGACGGAGATGAGAAAACAGATGAAGAAGCAGAGGGGCCATATTCAGATAATGAGATGTTAACACACAAAGGGCTTCGAAGATCGCAAAGCATGAAATCTGTGAAAACCACCAAAGGCCGCAAAGAGGTGCGGTACGGGTCACTAAAATACAAAGTGAAGAAACGACCACAAGTGTATTTTTAGTCATCTACACGTCAAATATCCC
# modifications: CDS (1)..(765)
# B2: 177 (nucleic acid, listed as Homo sapiens)
# chain: AAACGAAACGGTAACCAGCCCTGGGAAGCCCGCAAGAGGCCTCAGCGGTGGCCGTCCGAGCGCCGAGAGGTGAGGGTGCCCCCGCCTCACCTGCAGAGGGGCCGTTCCGGGCTCGAACCCGGCACCTTCCGGAAAATGGCGGCTGCCAGGCCCAGCCTGGGCCGAGTCCTCCCAGGATCCTCTGTCCTGTTCCTGTGTGACATGCAGGAGAAGTTCCGCCACAACATCGCCTACTTCCCACAGATCGTCTCAGTGGCTGCCCGCATGCTCAAGGTGGCCCGGCTGCTTGAGGTGCCAGTCATGCTGACGGAGCAGTACCCACAAGGCCTGGGCCCCACGGTGCCCGAGCTGGGGACTGAGGGCCTTCGGCCGCTGGCCAAGACCTGCTTCAGCATGGTGCCTGCCCTGCAGCAGGAGCTGGACAGTCGGCCCCAGCTGTGCTCTGTGCTGCTCTGTGGCATTGAGGCACAGGCCTGCATCTTGAACACGACCCTGGACCTCCTAGACCGGGGGCTGCAGGTCCATGTGGTGGTGGACGCCTGCTCCTCACGCAGCCAGGTGGACCGGCTGGTGGCTCTGGCCCGCATGAGACAGAGTGGTGCCTTCCTCTCCACCAGCGAAGGGCTCATTCTGCAGCTTGTGGGCGATGCCGTCCACCCCCAGTTCAAGGAGATCCAGAAACTCATCAAGGAGCCCGCCCCAGACAGCGGACTGCTGGGCCTCTTCCAAGGCCAGCTGCTCCCGGAAATGCAAATGAGACTCCTGGAAACTGGGTGGGAATTGGCTGAGCCGAGATGGAGGCGGGGCTCGGCCCCGGGCCACTTCACGGGGCGGGAAGGGGAGGGGAAGAAGAGTCTCAGACTGTGGGACACGGACTCGCAGAATAAACATATATGTGGCTGTG
# modifications: CDS (136)..(903)
# Test system: STAT6
# Experiment: Screening of full-length cDNA clones for promotion of STAT6 activation (luciferase reporter N4×8-luc)
# Type: cell-based
# Conditions: NIH3T3 cells cotransfected with N4×8-luc reporter and cDNA plasmid; 48 h culture, then mouse IL-4 0.5 ng/ml for 6 h
# Method in brief: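 Promotion of STAT6 activation scored as increase in luciferase signal over null-vector control cells. NIH3T3 cells carried N4×8-luc (100 ng) plus cDNA clone; after 48 h culture, 6 h stimulation with 0.5 ng/ml (final) mouse IL-4 preceded reading.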
row,Molecule,Activity = (luciferase activity of the gene of each SEQ ID NO:)/(luciferase activity of pME18S-FL3)
1,B1,3.3
2,B2,22.6
